In article PMC6446846 (The Journal of Cell Biology, 2019):

Molecular target: T1, GST-KBP (kinesin-binding protein) (human, UniProt Q96EK5 1-621)
T1 sequence (looked up): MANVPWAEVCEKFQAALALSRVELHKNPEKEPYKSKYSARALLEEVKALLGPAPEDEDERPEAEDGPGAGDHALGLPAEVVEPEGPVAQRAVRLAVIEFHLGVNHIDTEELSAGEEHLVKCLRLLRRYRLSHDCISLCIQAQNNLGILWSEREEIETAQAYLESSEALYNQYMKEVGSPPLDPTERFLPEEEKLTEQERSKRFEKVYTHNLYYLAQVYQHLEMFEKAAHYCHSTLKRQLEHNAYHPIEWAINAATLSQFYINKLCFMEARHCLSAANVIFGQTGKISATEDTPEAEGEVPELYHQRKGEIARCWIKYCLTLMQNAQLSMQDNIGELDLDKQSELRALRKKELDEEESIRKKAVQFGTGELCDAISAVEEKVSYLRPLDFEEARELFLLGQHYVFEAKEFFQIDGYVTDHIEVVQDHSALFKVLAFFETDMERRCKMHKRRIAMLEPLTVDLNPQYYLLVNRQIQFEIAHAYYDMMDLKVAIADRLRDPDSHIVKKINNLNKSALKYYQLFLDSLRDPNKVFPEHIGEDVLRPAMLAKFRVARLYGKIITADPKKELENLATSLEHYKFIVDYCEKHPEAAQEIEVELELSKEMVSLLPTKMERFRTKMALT
Experiment: pull-down

Binder	binding result
KIF18A-N480-GFP-His6 (domain or fragment, human, UniProt Q8NI77 1-480, looked up) MSVTEEDLCHHMKVVVRVRPENTKEKAAGFHKVVHVVDKHILVFDPKQEEVSFFHGKKTTNQNVIKKQNKDLKFVFDAVFDETSTQSEVFEHTTKPILRSFLNGYNCTVLAYGATGAGKTHTMLGSADEPGVMYLTMLHLYKCMDEIKEEKICSTAVSYLEVYNEQIRDLLVNSGPLAVREDTQKGVVVHGLTLHQPKSSEEILHLLDNGNKNRTQHPTDMNATSSRSHAVFQIYLRQQDKTASINQNVRIAKMSLIDLAGSERASTSGAKGTRFVEGTNINRSLLALGNVINALADSKRKNQHIPYRNSKLTRLLKDSLGGNCQTIMIAAVSPSSVFYDDTYNTLKYANRAKDIKSSLKSNVLNVNNHITQYVKICNEQKAEILLLKEKLKAYEEQKAFTNENDQAKLMISNPQEKEIERFQEILNCLFQNREEIRQEYLKLEMLLKENELKSFYQQQCHKQIEMMCSEDKVEKATGKR	binds
His6-KIF15-N420 (domain or fragment, human, UniProt Q9NS87 1-420, looked up) MAPGCKTELRSVTNGQSNQPSNEGDAIKVFVRIRPPAERSGSADGEQNLCLSVLSSTSLRLHSNPEPKTFTFDHVADVDTTQESVFATVAKSIVESCMSGYNGTIFAYGQTGSGKTFTMMGPSESDNFSHNLRGVIPRSFEYLFSLIDREKEKAGAGKSFLCKCSFIEIYNEQIYDLLDSASAGLYLREHIKKGVFVVGAVEQVVTSAAEAYQVLSGGWRNRRVASTSMNRESSRSHAVFTITIESMEKSNEIVNIRTSLLNLVDLAGSERQKDTHAEGMRLKEAGNINRSLSCLGQVITALVDVGNGKQRHVCYRDSKLTFLLRDSLGGNAKTAIIANVHPGSRCFGETLSTLNFAQRAKLIKNKAVVNEDTQGNVSQLQAEVKRLKEQLAELASGQTPPESFLTRDKKKTNYMEYFQE	binds
